Assay results published in patent publication US20200199241A1 (Chugai, published 2020).
Each block holds one binder with its values, some of them ahead of it.

Experiments:
human FcγRIa [1] = biological target: T1, human FcγRIa (human, UniProt P12314 16-292, limits assumed); assay: SPR (Biacore), antibody captured, FcγR as analyte
T1 construct: also called CD64
T1 sequence (P12314 16-292 limits assumed): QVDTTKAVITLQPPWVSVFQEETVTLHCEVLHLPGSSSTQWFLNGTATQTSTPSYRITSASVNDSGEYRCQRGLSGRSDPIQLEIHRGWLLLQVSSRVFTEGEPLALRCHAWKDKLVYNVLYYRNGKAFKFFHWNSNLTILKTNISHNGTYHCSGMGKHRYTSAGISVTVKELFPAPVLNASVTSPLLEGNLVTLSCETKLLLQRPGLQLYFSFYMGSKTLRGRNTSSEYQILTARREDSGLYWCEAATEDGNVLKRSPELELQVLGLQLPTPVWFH

human FcγRIIa type R = biological target: T2, human FcγRIIa type R (human, UniProt P12318 36-217); assay: SPR (Biacore), antibody captured, FcγR as analyte
T2 construct: also called FcγRIIaR; FcγRIIa(R)
T2 chain: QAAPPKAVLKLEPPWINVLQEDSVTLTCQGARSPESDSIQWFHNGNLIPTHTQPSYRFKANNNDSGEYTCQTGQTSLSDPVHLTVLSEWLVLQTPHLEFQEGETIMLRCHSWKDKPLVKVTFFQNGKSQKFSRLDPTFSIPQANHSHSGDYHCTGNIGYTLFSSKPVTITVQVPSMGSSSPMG

human FcγRIIa type H = biological target: T3, human FcγRIIa type H (human, UniProt P12318 36-217); assay: SPR (Biacore), antibody captured, FcγR as analyte
T3 construct: also called FcγRIIaH; FcγRIIa(H)
T3 sequence: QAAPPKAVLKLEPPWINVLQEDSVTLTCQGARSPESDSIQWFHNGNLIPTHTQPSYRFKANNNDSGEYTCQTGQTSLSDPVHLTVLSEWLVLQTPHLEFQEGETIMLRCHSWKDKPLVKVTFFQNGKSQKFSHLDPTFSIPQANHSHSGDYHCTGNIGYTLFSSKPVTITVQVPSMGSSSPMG

human FcγRIIb [2] = biological target: T4, human FcγRIIb (human, UniProt P31994 43-217, limits assumed); assay: SPR (Biacore), antibody captured, FcγR as analyte
T4 construct: also called FcγIIB
T4 sequence: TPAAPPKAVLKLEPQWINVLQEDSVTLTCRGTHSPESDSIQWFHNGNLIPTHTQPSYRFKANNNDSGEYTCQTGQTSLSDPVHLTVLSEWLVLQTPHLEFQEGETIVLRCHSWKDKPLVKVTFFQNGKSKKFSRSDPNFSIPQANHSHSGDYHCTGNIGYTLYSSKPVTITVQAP

human FcγRIIb [3] = biological target: T4, human FcγRIIb; assay: SPR (Biacore); ratio against parent IL6R-F11/IL6R-L
human FcγRIIb [4] = biological target: T4, human FcγRIIb; assay: SPR (Biacore); KD for FcγRIIaH divided by KD for FcγRIIb of the same antibody
human FcγRIIb [5] = biological target: T4, human FcγRIIb; assay: SPR (Biacore); KD for FcγRIIaR divided by KD for FcγRIIb of the same antibody
FcγRIIb [6] = biological target: T5, FcγRIIb (human, UniProt P31994 43-217, limits assumed); assay: ratio of SPR KDs; reference IL6R-B3/IL6R-L
T5 construct: SPR analyte; also called FcγIIB; CD32
T5 sequence: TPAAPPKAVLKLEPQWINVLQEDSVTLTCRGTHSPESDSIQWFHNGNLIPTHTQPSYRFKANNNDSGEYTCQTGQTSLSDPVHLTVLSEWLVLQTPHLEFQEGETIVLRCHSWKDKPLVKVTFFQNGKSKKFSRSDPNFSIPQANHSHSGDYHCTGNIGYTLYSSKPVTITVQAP
From the text: (§1) Furthermore, KD(IIaR)/KD(IIb) and KD(IIaH)/KD(IIb) in the table respectively represent the value obtained by dividing the KD value of each variant for FcγRIIaR by the KD value of each variant for FcγRIIb, and the value obtained by dividing the KD value of each variant for FcγRIIaH by the KD value of each variant for FcγRIIb. KD(IIb) of the parent polypeptide/KD(IIb) of the altered polypeptide refers to the value obtained by dividing the KD value of the parent polypeptide for FcγRIIb by the KD value of each variant for FcγRIIb.

FcγRIa = biological target: T6, FcγRIa (human, UniProt P12314 16-292, limits assumed); assay: SPR (Biacore), antibody captured, FcγR analyte
T6 construct: SPR analyte; also called CD64
T6 sequence (P12314 16-292 limits assumed): as the sequence (P12314 16-292 limits assumed) above
From the text: as §1

FcγRIIa type R = biological target: T7, FcγRIIa type R (human, UniProt P12318 36-217); assay: SPR (Biacore), antibody captured, FcγR analyte
T7 construct: SPR analyte; also called FcγRIIaR; FcγRIIa(R)
T7 chain: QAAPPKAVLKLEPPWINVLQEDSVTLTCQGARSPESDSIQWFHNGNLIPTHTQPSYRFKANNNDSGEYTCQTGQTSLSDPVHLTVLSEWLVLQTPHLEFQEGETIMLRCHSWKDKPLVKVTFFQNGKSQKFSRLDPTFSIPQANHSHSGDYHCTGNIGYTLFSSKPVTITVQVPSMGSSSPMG
From the text: as §1

FcγRIIa type H [7] = biological target: T8, FcγRIIa type H (human, UniProt P12318 36-217); assay: SPR (Biacore), antibody captured, FcγR analyte
T8 construct: SPR analyte; also called FcγRIIaH
T8 sequence: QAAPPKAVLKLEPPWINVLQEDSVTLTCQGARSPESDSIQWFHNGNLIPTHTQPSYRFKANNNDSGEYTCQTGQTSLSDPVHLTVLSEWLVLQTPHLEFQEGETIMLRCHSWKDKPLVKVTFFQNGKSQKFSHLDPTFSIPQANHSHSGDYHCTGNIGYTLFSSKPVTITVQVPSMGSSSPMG
From the text: as §1

FcγRIIb [8] = biological target: T5, FcγRIIb; assay: SPR (Biacore), antibody captured, FcγR analyte
From the text: as §1

FcγRIIIa type V = biological target: T9, FcγRIIIa type V (human, UniProt P08637 17-208, limits assumed); assay: SPR (Biacore), antibody captured, FcγR analyte
T9 construct: SPR analyte; allotype V158 was used here; also called FcγRIIIaV; FcγRIIIa(V)
T9 sequence (P08637 other isoform, or with tags, fused parts or gaps limits assumed): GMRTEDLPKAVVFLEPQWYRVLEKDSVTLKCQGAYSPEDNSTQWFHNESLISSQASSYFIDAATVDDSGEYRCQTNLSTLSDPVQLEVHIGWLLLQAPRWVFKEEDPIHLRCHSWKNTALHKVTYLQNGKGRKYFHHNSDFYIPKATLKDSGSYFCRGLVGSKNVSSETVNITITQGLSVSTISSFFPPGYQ
From the text: as §1

FcγRIIb [9] = biological target: T5, FcγRIIb; assay: ratio of SPR KDs: KD for FcγRIIaH over KD for FcγRIIb
From the text: (§2) Furthermore, KD(IIaR)/KD(IIb) and KD(IIaH)/KD(IIb) in the table respectively represent the value obtained by dividing the KD value of each variant for FcγRIIaR by the KD value of each variant for FcγRIIb, and the value obtained by dividing the KD value of each variant for FcγRIIaH by the KD value of each variant for FcγRIIb.

FcγRIIb [10] = biological target: T5, FcγRIIb; assay: ratio of SPR KDs: KD for FcγRIIaR over KD for FcγRIIb
From the text: as §2

FcγRIIa type H [11] = biological target: T8, FcγRIIa type H; assay: ratio of SPR KDs; stronger receptor here FcγRIIaH; reference IL6R-B3/IL6R-L (FcγRIIaH)
[12] = biological target: T10, soluble human IL-6 receptor (human, UniProt P08887 20-357); assay: Biacore SPR, 3 uM CaCl2, pH 7.4, 37C, estimated
T10 construct: also called hsIL-6R
T10 sequence: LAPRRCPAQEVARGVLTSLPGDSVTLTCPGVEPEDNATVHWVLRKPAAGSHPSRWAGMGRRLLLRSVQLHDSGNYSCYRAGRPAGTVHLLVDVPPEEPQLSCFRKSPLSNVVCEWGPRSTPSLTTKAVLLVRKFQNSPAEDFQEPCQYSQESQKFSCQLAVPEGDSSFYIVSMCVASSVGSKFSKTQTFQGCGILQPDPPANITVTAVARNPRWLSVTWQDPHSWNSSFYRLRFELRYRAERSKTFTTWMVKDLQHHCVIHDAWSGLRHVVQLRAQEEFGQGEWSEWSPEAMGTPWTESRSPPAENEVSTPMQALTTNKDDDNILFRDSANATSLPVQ
Method: (§3) The kinetic analysis of the antigen-antibody reactions was conducted in solutions with 2 mM and 3 μM calcium ion concentrations, set as high and low calcium ion concentration conditions, respectively. The antibody of interest was captured on Sensor chip CM4 (GE Healthcare) on which an appropriate amount of protein A (Invitrogen) was immobilized by an amine coupling method. Two buffers [10 mM N-(2-acetamido)-2-aminoethanesulfonic acid (ACES), 150 mM NaCl, 0.05% (w/v) polysorbate 20 (Tween 20®), and 2 mM CaCl₂ (pH 7.4) or 10 mM ACES, 150 mM NaCl, 0. 05% (w/v) polysorbate 20 (Tween 20®), and 3 μmol/L CaCl₂ (pH 7.4)] were used as running buffers. These buffers were used for diluting human IL-6 receptor. All the measurements were conducted at 37° C.
(§4) Subsequently, the sensor chip was regenerated by injecting 10 mM glycine-HCl (pH 1.5) at a flow rate 30 μL/min for 30 seconds.

[13] = biological target: T10, soluble human IL-6 receptor; assay: Biacore SPR, 3 uM CaCl2, pH 7.4, 37C, estimated from Req and Rmax
Method: as §3, §4

human FcγRIIb [14] = biological target: T11, human FcγRIIb (human, UniProt P31994 43-217, limits assumed); assay: SPR, antibody captured on the chip, FcγR as analyte, HBS-EP+, 25 C; amount bound corrected for captured antibody
T11 construct: also called hFcgRIIb; FcγIIB
T11 sequence: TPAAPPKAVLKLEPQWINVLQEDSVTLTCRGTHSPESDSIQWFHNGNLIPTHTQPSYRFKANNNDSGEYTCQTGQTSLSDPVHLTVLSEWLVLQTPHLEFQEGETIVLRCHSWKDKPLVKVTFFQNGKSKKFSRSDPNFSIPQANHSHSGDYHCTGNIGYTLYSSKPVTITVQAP
Method: (§5) Interaction between each modified antibody and Fcγ receptor prepared in the manner described above was analyzed using the BIACORE™ T100 surface plasmon resonance system (GE Healthcare), BIACORE™ T200 surface plasmon resonance system (GE Healthcare), BIACORE™ A100 surface plasmon resonance system or BIACORE™ 4000 surface plasmon resonance system. HBS-EP+ (GE Healthcare) was used for the running buffer, and measurements were carried out at 25° C. The chips used were chips in which antigen peptides, Protein A (Thermo Scientific), Protein A/G (Thermo Scientific) or Protein L (ACTIGEN® protein (Alltech or BioVision) were immobilized on the Series S Sensor Chip CMS (GE Healthcare) or Series S Sensor Chip CM4 (GE Healthcare) by amine coupling, or chips in which preliminarily biotinylated antigen peptides were allowed to interact and then immobilized on the Series S Sensor Chip SA (certified) (GE Healthcare). The target antibodies were captured on these sensor chips, Fcγ receptor diluted with the running buffer was allowed to interact, followed by measurement of the amount of bound antibody. The amounts bound were compared between antibodies. However, since the amount of Fcγ receptor bound depends on the amount of captured antibody, the values used for comparison were first corrected by dividing the amount of Fcγ receptor bound by the captured amount of each antibody. Through reaction with 10 mM glycine-HCl at pH 1.5, the sensor chips were regenerated by washing off antibody captured on the sensor chips and used repeatedly.

human FcγRIa [15] = biological target: T12, human FcγRIa (human, UniProt P12314 16-292, limits assumed); assay: as above
T12 construct: also called hFcgRIa; hFcgRI
T12 sequence (P12314 16-292 limits assumed): as the sequence (P12314 16-292 limits assumed) above
Method: as §5

human FcγRIIa(R) = biological target: T13, human FcγRIIa(R) (human, UniProt P12318 36-217); assay: as above
T13 construct: also called hFcgRIIa(R); FcγRIIa type R
T13 chain: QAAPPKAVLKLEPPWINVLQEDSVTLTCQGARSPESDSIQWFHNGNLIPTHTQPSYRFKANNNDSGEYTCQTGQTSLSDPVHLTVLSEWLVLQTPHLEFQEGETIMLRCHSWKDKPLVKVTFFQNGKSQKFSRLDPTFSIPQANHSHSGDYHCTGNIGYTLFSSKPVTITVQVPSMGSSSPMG
Method: as §5

human FcγRIIa(H) = biological target: T14, human FcγRIIa(H) (human, UniProt P12318 36-217); assay: as above
T14 construct: also called hFcgRIIa(H); FcγRIIa type H
T14 sequence: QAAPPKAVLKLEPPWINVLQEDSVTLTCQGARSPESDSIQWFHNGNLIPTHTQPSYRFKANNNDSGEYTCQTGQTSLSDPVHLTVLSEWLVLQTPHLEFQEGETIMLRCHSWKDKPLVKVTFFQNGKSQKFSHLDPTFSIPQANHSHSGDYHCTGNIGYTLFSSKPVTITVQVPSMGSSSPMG
Method: as §5

Kd (human FcγRIa [1]): 0.0009 µM
Kd (human FcγRIIa type R): 5 µM
Kd (human FcγRIIa type H): 5 µM
Kd (human FcγRIIb [2]): 6.8 µM
KD(IIb) of parent polypeptide/KD(IIb) of altered polypeptide (human FcγRIIb [3]): 1
KD(IIaH)/KD(IIb) (human FcγRIIb [4]): 0.7
KD(IIaR)/KD(IIb) (human FcγRIIb [5]): 0.7
B1: IL6R-F11/IL6R-L (antibody, human IgG1)
heavy: not shown
light: DIQMTQSPSSLSASVGDRVTITCRASQDISSYLNWYQQKPGKAPKLLIYYTSRLHSGVPSRFSGSGSGTDFTFTISSLQPEDIATYYCQQGNTLPYTFGQGTKVEIK
notes: IL6R-G1d with M252Y/N434Y (EU numbering)

Kd [12]: ≥ 34 µM
Kd [13]: ~34 µM
B4: FH4-IgG1 (antibody, V domains shown)
VH: QVQLVQSGAEVKKPGSSVKVSCKASGGTFSSYAISWVRQAPGQGLEWMGGIIPIFGTANYAQKFQGRVTITADESTSTAYMELSSLRSEDTAVYYCARERDYYDSSGYYDAFDIWGQGTMVTVSS
VL: ETTVTQSPSFLSASVGDRVTITCITTTDIDDDMNWFQQEPGKAPKLLISEGNILRPGVPSRFSSSGYGTDFTLTISKLQPEDFATYYCLQSDNLPFTFGQGTKLEIKR

Kd [12]: ≥ 31 µM
Kd [13]: ~31 µM
B7: 6RL#9-IgG1 (antibody, V domains shown, not shown: a dimerising Fc or GST)
VH: QVQLVQSGAEVKKPGASVKVSCKASGYTFTSYYMHWVRQAPGQGLEWMGIINPSGGSTSYAQKFQGRVTMTRDTSTSTVYMELSSLRSEDTAVYYCARDDPGGGEYYFDYWGQGTLVTVSS
VL: QSVLTQPPSVSGAPGQRVTISCTGSRSNMGAGYDVHWYQLLPGAAPKLLISHNTHRPSGVPDRFSGSKSGASASLAITGLQAEDEADYYCQSHDSSLSAVVFGGGTKLTVLS

The next lines start with the binder.

B2: IL6R-B3/IL6R-L (antibody, human IgG1)
heavy: not shown
light: DIQMTQSPSSLSASVGDRVTITCRASQDISSYLNWYQQKPGKAPKLLIYYTSRLHSGVPSRFSGSGSGTDFTFTISSLQPEDIATYYCQQGNTLPYTFGQGTKVEIK
notes: IL6R-G1d with K439E (EU numbering); also called parent polypeptide
KD(IIb) of the parent polypeptide/KD(IIb) of altered polypeptide (FcγRIIb [6]): 1
Kd (FcγRIa): 0.00042 µM
Kd (FcγRIIa type R): 1.1 µM
Kd (FcγRIIa type H [7]): 0.77 µM
Kd (FcγRIIb [8]): 3.1 µM
Kd (FcγRIIIa type V): 0.33 µM
KD(IIaH)/KD(IIb) (FcγRIIb [9]): 0.2
KD(IIaR)/KD(IIb) (FcγRIIb [10]): 0.3
KD of the stronger of FcγRIIaR/FcγRIIaH binding of the variant / that of the parent polypeptide (FcγRIIa type H [11]): 1

B3: IL6R-G1d/IL6R-L (antibody, human IgG1)
heavy: not shown
light: DIQMTQSPSSLSASVGDRVTITCRASQDISSYLNWYQQKPGKAPKLLIYYTSRLHSGVPSRFSGSGSGTDFTFTISSLQPEDIATYYCQQGNTLPYTFGQGTKVEIK
notes: Anti-human IL-6 receptor antibody with the G1d constant region; also called IgG1 (IL6R-G1d)
KD(IIb) of the parent polypeptide/KD(IIb) of altered polypeptide (FcγRIIb [6]): 1.2
Kd (FcγRIa): 0.00032 µM
Kd (FcγRIIa type R): 1 µM
Kd (FcγRIIa type H [7]): 0.67 µM
Kd (FcγRIIb [8]): 2.6 µM
Kd (FcγRIIIa type V): 0.35 µM
KD(IIaH)/KD(IIb) (FcγRIIb [9]): 0.3
KD(IIaR)/KD(IIb) (FcγRIIb [10]): 0.4
KD of the stronger of FcγRIIaR/FcγRIIaH binding of the variant / that of the parent polypeptide (FcγRIIa type H [11]): 0.9

B5: GpH7-G1d/GpL16-k0 (antibody, human IgG1)
heavy: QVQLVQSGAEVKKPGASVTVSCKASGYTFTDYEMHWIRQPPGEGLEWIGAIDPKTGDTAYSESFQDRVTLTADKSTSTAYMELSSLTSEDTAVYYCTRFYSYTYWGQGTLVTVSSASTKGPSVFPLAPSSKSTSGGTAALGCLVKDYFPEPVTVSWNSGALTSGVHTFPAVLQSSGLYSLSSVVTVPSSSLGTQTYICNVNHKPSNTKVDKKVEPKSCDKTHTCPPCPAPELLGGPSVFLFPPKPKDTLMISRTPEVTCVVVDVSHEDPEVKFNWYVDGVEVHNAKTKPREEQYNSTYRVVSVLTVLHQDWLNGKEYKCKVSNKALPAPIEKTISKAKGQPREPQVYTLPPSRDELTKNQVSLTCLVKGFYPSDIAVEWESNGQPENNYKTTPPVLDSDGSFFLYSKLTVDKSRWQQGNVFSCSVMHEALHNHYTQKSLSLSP
light: DIVMTQSPLSLPVTPGEPASISCQASESLVHSNRNTYLHWYLQKPGQSPQLLIYKVSNRFSGVPDRFSGSGSGTDFTLKISRVEAEDVGVYYCSQNTHVPPTFGQGTKVEIE
notes: anti-glypican-3 antibody; G1d is IgG1 with Gly and Lys deleted from the C terminus; copies: 2 + 2
relative binding activity (GpH7-G1d/GpL16-k0 = 100) (human FcγRIIb [14]): 100
relative binding activity (GpH7-G1d/GpL16-k0 = 100) (human FcγRIa [15]): 100
relative binding activity (GpH7-G1d/GpL16-k0 = 100) (human FcγRIIa(R)): 100
relative binding activity (GpH7-G1d/GpL16-k0 = 100) (human FcγRIIa(H)): 100

B6: GpH7-B3/GpL16-k0 (antibody, human IgG1)
heavy: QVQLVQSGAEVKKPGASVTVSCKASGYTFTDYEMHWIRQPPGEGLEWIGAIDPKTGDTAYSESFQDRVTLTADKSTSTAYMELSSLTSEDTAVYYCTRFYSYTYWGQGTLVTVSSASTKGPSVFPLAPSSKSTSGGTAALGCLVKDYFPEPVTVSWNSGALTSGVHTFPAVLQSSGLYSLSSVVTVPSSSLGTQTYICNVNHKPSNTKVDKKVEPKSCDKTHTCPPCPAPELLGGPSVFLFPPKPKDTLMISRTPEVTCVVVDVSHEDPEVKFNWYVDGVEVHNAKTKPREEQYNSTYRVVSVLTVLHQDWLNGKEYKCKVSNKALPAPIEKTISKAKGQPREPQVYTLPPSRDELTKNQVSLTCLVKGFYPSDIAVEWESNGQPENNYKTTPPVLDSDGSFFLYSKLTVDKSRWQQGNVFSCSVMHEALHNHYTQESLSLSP
light: DIVMTQSPLSLPVTPGEPASISCQASESLVHSNRNTYLHWYLQKPGQSPQLLIYKVSNRFSGVPDRFSGSGSGTDFTLKISRVEAEDVGVYYCSQNTHVPPTFGQGTKVEIE
notes: anti-glypican-3 antibody, constant region G1d with K439E; copies: 2 + 2
relative binding activity (GpH7-G1d/GpL16-k0 = 100) (human FcγRIIb [14]): 88
relative binding activity (GpH7-G1d/GpL16-k0 = 100) (human FcγRIa [15]): 109
relative binding activity (GpH7-G1d/GpL16-k0 = 100) (human FcγRIIa(R)): 94
relative binding activity (GpH7-G1d/GpL16-k0 = 100) (human FcγRIIa(H)): 92
